Assay results taken from patent US11071783 (DUKE UNIVERSITY, dated 2021).

T1: STUB1 (STIP1 homology and U-box containing protein 1) (human, UniProt Q9UNE7 1-303)
T1 construct: also called E3 ubiquitin ligase STIP1 Homology and U-Box Containing Protein 1
T1 sequence (looked up): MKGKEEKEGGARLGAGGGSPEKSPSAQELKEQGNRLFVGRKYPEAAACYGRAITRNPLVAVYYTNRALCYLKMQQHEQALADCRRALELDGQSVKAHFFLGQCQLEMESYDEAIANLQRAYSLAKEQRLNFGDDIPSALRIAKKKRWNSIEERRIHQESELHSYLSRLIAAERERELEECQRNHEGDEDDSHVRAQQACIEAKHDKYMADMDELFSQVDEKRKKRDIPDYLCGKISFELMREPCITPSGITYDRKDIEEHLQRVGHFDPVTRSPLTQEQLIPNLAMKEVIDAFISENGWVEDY

B1: DH511.2 (antibody, V domains shown)
VH: QVQLVQSGGGLVKPGGSLTLSCSASGFFFDNSWMGWVRQAPGKGLEWVGRIRRLKDGATGEYGAAVKDRFTISRDDSRNMLYLHMRTLKTEDSGTYYCTMDEGTPVTRFLEWGYFYYYMAVWGRGTTVIVSS
VL: DIVMTQSPSSVSASVGDRVTITCRASQNIRDYLNWYQHKPGGSPRLLIYAASTLQTGVPSRFSGSGSGNLFTLTITNLQPEDFATYYCQENYNTIPSLSFGQGTKVDIR
notes: also called DH512; Ab510049

Key:
[1] = target: gp41 of HIV-1 isolate B.BG1168 Env (HIV-1); assay: cell-based or functional assay
[2] = target: T1, STUB1 (STIP1 homology and U-box …); assay: protein microarray of >9400 human proteins
Experimental: Antibodies were also screened for binding to a panel of >9,400 human proteins using a Protoarray microarray (Invitrogen, Carlsbad, Calif.) according to the manufacturer's instructions and as described in (6). […] Arrays were scanned using a GenePix 4000B scanner (Molecular Devices, Sunnyvale, Calif.) at a wavelength of 635 nm, 10 µm resolution, using 100% power and 650 gain. The fluorescence intensity of antibody binding was measured with the GenePix Pro 5.0 program (Molecular Devices, Sunnyvale, Calif.).

| Molecule | lifetime of neutralization (t1/2), post-attachment TZM-bl assay with B.BG1168 [1] | binding result [2] |
| --- | --- | --- |
| 4E10 (antibody) | 28.2 min |  |
| 10E8 (antibody) | 25.6 min |  |
| B1 |  | binds |
